Here are results for four substances from patent publication US20190309079A1.

Experiment [1] concerns the target extracellular domain of human LEPR (amino acids 22-839 of P48357, Isoform B) with N-terminal myc-myc tag, GPI-anchored on HEK293 cells (HEK293/hLEPR-GPI) (human) (UniProt P48357). Briefly: FACS, HEK293/hLEPR-GPI, no Leptin. Background: Flow cytometry measures light scatter and fluorescence of single cells or particles in a stream.
The target is the same in experiment [2]. Briefly: FACS, HEK293/hLEPR-GPI, 1 uM Leptin.
For experiment [3] the target is unchanged. Briefly: FACS, HEK293/hLEPR-GPI, no added Leptin.
The target in experiment [4] is full length human LEPR (amino acids 1-1165 of P48357, Isoform B) on cells (human) (UniProt P48357). The experiment in a line: FACS, HEK293/Stat3-luc/hLEPR-FL, no Leptin.
Sequence of full length human LEPR (amino acids 1-1165 of P48357, Isoform B) on cells (human) (P48357 22-1165): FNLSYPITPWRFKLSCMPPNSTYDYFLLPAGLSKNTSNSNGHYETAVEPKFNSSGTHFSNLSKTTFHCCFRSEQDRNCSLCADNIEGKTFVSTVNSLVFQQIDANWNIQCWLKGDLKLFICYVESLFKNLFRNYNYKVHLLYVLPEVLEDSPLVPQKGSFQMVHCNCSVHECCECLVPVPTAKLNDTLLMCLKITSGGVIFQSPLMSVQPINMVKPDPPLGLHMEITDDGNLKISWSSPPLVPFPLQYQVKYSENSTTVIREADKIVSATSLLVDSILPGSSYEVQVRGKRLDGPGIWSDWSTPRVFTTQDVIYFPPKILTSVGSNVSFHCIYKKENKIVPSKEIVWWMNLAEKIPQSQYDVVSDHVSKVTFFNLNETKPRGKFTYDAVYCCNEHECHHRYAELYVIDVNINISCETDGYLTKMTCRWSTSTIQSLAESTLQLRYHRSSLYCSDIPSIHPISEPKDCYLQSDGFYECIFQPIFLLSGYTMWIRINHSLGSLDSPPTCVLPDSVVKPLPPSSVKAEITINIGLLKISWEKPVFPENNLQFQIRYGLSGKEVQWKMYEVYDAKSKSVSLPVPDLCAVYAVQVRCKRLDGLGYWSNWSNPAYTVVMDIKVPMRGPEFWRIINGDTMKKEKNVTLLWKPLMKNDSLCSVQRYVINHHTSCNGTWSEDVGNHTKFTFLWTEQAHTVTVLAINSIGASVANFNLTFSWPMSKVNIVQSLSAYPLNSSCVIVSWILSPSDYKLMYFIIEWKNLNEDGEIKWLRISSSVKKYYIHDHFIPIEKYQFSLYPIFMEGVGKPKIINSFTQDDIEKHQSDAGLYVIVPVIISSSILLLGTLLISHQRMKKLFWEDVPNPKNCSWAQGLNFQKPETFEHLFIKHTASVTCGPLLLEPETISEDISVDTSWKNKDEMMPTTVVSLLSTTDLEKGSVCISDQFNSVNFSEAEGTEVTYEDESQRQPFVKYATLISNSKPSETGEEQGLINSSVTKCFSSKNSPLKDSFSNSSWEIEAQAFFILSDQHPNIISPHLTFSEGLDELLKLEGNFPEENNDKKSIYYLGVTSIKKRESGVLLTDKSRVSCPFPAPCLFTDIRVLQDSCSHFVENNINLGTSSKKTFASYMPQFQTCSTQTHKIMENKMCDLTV
Experiment [5] concerns the target extracellular domain portion of LEPR protein expressed with a C-terminal human Fc tag (hLEPR.hFc) (human). The experiment in a line: blocking ELISA, hLeptin coated. In general terms: In an ELISA, binding on a coated surface is turned into a signal by an enzyme label.
In experiment [6] the target is human LEPR CRH1 (D1)-MMH (human) (UniProt P48357). Briefly: Luminex, myc-captured protein on beads.
The target in experiment [7] is extracellular domain of human LEPR (amino acids 22-839 of P48357, Isoform B) with N-terminal myc-myc tag, GPI-anchored on HEK293 cells (HEK293/hLEPR-GPI) (human) (UniProt P48357). The experiment in a line: FACS, 10 nM Ab, HEK293/hLEPR-GPI, 1 uM Leptin.
Sequence of extracellular domain of human LEPR (amino acids 22-839 of P48357, Isoform B) with N-terminal myc-myc tag, GPI-anchored on HEK293 cells (HEK293/hLEPR-GPI) (human) (P48357 22-839, one chain of several): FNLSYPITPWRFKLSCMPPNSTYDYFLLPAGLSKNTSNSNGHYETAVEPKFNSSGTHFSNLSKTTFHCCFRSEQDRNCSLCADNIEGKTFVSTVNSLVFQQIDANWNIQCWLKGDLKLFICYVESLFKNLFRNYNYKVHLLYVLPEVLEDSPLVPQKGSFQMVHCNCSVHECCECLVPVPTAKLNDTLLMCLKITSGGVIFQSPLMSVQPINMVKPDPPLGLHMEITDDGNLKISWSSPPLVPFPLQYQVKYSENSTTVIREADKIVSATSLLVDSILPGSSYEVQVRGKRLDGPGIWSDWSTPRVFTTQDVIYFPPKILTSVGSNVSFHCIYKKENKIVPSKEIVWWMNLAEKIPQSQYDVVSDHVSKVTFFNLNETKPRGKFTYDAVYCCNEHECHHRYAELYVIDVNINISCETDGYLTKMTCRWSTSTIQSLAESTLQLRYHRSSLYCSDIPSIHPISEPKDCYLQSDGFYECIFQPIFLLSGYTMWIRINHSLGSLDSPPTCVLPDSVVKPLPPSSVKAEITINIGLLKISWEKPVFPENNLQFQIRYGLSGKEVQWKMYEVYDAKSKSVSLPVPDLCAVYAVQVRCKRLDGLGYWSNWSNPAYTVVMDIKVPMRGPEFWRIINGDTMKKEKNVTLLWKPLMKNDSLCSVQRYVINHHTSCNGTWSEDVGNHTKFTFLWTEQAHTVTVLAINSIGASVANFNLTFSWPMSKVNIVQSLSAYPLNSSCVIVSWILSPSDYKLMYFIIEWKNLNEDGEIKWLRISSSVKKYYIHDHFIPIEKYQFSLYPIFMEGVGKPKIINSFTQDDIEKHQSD
For experiment [8] the target is unchanged. Briefly: FACS, 10 nM Ab, HEK293/hLEPR-GPI, no added Leptin.
Experiment [9] has as its target Macaca fascicularis LEPR extracellular domain expressed with a C-terminal myc-myc-hexahistidine tag (mfLEPR.mmh) (Macaca fascicularis). The experiment in a line: SPR, captured mAb, 37C.
For experiment [10], the target named is human LEPR extracellular domain expressed with a C-terminal mouse IgG2a Fc tag (hLEPR.mFc) (human). The experiment in a line: SPR, captured mAb, 37C.
Sequence of human LEPR extracellular domain expressed with a C-terminal mouse IgG2a Fc tag (hLEPR.mFc) (human) (chain, as listed by the source limits assumed): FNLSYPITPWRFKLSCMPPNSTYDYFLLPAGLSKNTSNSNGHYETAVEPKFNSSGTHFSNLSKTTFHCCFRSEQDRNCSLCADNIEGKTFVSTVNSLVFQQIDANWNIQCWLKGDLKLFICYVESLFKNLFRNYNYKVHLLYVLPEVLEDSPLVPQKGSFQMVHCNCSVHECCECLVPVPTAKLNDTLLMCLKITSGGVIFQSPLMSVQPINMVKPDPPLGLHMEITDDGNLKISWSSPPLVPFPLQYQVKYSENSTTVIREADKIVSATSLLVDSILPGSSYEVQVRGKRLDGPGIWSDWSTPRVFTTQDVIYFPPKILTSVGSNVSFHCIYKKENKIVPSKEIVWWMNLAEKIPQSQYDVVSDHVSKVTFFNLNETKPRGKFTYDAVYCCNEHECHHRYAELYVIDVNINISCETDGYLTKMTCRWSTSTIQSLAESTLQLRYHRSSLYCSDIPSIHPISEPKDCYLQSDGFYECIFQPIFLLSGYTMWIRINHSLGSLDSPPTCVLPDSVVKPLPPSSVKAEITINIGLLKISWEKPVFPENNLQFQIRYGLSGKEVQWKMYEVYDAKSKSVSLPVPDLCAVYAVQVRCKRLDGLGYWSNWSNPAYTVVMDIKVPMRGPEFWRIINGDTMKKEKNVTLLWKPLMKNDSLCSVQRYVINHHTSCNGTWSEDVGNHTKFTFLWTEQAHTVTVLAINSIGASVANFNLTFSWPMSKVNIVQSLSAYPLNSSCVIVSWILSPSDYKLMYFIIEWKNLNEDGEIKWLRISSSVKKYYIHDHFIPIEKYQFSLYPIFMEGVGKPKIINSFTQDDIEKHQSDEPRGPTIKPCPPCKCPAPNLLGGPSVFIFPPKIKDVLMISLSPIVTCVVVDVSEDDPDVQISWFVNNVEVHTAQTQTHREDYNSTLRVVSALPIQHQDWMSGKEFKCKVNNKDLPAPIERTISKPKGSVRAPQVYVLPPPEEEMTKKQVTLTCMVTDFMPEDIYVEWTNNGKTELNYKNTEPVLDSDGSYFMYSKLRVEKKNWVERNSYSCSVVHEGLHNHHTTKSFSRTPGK
Experiment [11] concerns the target human LEPR extracellular domain expressed with a C-terminal myc-myc-hexahistidine tag (hLEPR.mmh) (human) (UniProt P48357). The experiment in a line: SPR, captured mAb, 37C. For orientation: SPR reads the build-up and loss of mass on a sensor chip optically.
Experiment [12] addresses Macaca fascicularis LEPR extracellular domain expressed with a C-terminal myc-myc-hexahistidine tag (mfLEPR.mmh) (Macaca fascicularis). The experiment in a line: SPR, captured mAb, 25C.
Experiment [13] addresses human LEPR extracellular domain expressed with a C-terminal mouse IgG2a Fc tag (hLEPR.mFc) (human). The experiment in a line: SPR, captured mAb, 25C.
Experiment [14] concerns the target human LEPR extracellular domain expressed with a C-terminal myc-myc-hexahistidine tag (hLEPR.mmh) (human) (UniProt P48357). Briefly: SPR, captured mAb, 25C.
Experiment [15] deals with extracellular domain of human LEPR (amino acids 22-839 of P48357, Isoform B) with N-terminal myc-myc tag, GPI-anchored on HEK293 cells (HEK293/hLEPR-GPI) (human) (UniProt P48357). The experiment in a line: FACS, 70 nM Ab, HEK293/hLEPR-GPI, no Leptin.
In experiment [16] the target is full length human LEPR (amino acids 1-1165 of P48357, Isoform B) on cells (human) (UniProt P48357). The experiment in a line: FACS, 70 nM Ab, HEK293/Stat3-luc/hLEPR-FL, no Leptin.

Sequence of extracellular domain portion of LEPR protein expressed with a C-terminal human Fc tag (hLEPR.hFc) (human) (chain, as listed by the source limits assumed): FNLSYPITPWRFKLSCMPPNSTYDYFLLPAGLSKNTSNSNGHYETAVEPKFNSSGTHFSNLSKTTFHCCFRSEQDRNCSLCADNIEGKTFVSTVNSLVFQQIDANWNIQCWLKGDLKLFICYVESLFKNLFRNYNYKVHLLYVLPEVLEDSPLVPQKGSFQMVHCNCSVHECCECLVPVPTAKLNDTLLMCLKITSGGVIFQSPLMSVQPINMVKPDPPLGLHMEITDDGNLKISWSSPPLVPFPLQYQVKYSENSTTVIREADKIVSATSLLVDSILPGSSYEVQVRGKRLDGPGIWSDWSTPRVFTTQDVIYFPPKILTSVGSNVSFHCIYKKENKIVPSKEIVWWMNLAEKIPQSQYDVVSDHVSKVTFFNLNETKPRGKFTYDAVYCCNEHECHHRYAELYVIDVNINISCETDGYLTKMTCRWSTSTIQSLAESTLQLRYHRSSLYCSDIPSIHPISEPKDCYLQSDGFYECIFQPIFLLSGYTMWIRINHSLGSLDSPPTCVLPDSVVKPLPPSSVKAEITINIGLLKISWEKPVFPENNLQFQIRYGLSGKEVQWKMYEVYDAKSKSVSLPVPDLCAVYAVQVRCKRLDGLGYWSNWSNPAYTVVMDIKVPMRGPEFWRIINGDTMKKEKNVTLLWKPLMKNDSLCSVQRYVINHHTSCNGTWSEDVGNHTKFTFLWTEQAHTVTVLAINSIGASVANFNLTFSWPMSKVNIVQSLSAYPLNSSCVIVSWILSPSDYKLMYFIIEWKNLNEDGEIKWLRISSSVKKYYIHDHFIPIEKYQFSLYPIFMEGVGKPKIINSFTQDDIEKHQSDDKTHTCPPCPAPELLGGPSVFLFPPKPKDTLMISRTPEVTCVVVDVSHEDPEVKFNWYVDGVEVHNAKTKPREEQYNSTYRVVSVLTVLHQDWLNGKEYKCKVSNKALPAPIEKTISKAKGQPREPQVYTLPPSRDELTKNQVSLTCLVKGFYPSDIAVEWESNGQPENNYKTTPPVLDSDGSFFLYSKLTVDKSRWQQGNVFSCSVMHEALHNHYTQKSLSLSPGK
Sequence of human LEPR extracellular domain expressed with a C-terminal myc-myc-hexahistidine tag (hLEPR.mmh) (human) (P48357 other isoform, or with tags, fused parts or gaps): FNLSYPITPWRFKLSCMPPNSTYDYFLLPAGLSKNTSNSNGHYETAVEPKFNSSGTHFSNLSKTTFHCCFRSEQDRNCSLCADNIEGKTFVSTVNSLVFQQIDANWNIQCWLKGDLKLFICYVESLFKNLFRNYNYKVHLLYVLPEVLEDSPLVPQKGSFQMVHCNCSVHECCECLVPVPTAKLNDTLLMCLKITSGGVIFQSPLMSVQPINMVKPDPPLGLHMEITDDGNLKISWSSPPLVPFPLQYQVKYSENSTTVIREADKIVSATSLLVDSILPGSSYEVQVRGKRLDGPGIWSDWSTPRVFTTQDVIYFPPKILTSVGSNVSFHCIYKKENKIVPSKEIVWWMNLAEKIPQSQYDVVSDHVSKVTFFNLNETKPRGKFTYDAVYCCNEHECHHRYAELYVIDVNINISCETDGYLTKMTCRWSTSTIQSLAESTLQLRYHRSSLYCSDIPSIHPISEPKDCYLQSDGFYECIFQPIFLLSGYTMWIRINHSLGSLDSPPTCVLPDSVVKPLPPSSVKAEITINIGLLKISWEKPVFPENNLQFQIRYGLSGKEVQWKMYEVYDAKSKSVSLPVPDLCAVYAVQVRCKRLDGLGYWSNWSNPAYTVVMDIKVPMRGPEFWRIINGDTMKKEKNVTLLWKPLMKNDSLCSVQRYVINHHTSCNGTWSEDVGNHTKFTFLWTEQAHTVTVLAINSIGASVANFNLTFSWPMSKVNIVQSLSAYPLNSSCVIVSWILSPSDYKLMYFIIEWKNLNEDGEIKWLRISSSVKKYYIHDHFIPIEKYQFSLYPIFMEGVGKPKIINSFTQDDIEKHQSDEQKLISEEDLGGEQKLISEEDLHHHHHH

On to “Alexa Fluor-647 conjugated secondary antibody (Jackson ImmunoResearch Laboratories Inc., #109-547-003), alone”, for which the Binding Ratio (normalized to unstained) in [1] is 1 fold; in [2], 3 fold; in [3], 3 fold; in experiment [4] it was 1 fold.

As to “Comparator mAb (Fab9F8 described in Fazeli et al. 2006 and Carpenter et al. 2012) (antibody)”, the 500 nM Ab Blocking of 10 nM hLEPR.hFc Binding to hLeptin (% blockade) in experiment [5] amounted to 99%. The Luminex MFI in experiment [6] stood at 14 MFI. The Binding Ratio (normalized to unstained) in [7] is 112 fold; in [8] it was 2350 fold.

With Isotype Control monoclonal antibody, the 100 nM mfLEPR.MMH Bound (RU) in experiment [9] came out at 1 RU. Besides, the 100 nM hLEPR-mFc Bound (RU) in experiment [10] is 1 RU; in experiment [13], -2 RU. In experiment [11], the 100 nM hLEPR-MMH Bound (RU) turned out to be 6 RU. This substance also gave a 100 nM mfLEP.MMH Bound (RU) in experiment [12] of 0 RU. Further, the 100 nM hLEPR-mmH Bound (RU) in experiment [14] worked out at 4 RU. Further, the 500 nM Ab Blocking of 10 nM hLEPR.hFc Binding to hLeptin (% blockade) in [5] was -3%. Moreover, the Binding Ratio (normalized to unstained) in [15] was found to be 2 fold; in experiment [7] it was 4 fold; in [8], 6 fold; in experiment [16], 2 fold.

Mouse IgG2a Isotype control (antibody): in experiment [5], the 500 nM Ab Blocking of 10 nM hLEPR.hFc Binding to hLeptin (% blockade) amounted to 32%.
